From US20220119549A1 (TAVOTEK BIOTHERAPEUTICS HONG KONG, published 2022)
Where a chain is given by its changes, count along the chain named. In names and notes the source's numbering stands.

B1: TAVO186187 (antibody, human IgG1, kappa)
heavy: GIVEECCFRSCDLALLETYCAGGGGSGPLGVRGGGGSEVQLVESGGGLVQPGGSLRLSCAASGFDFADYAMHWVRQAPGKGLEWVSAITWNGGHTDYADSVKGRFTISRDNSKNTLYLQMNSLRAEDTAVYYCAKVSYLSTASSLDYWGQGTLVTVSSASTKGPSVFPLAPSSKSTSGGTAALGCLVKDYFPEPVTVSWNSGALTSGVHTFPAVLQSSGLYSLSSVVTVPSSSLGTQTYICNVNHKPSNTKVDKKVEPKSCDKTHTCPPCPAPPAAGPSVFLFPPKPKDTLMISRTPEVTCVVVDVSHEDPEVKFNWYVDGVEVHNAKTKPREEQYNSTYRVVSVLTVLHQDWLNGKEYKCKVSNKALPAPIEKTISKAKGQPREPQVYTLPPSRDELTKNQVSLTCLVKGFYPSDIAVEWESNGQPENNYKTTPPVLDSDGSFLLYSKLTVDKSRWQQGNVFSCSVLHEALHSHYTQKSLSLSPGK
light: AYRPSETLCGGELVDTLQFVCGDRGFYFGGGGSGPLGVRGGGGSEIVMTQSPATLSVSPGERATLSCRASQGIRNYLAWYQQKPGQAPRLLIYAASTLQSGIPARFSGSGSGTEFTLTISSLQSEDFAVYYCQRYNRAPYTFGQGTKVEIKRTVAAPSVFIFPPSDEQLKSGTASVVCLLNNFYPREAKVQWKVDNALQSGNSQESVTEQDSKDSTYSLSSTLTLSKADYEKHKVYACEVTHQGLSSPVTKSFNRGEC
notes: Undigested; IGF2 A chain - MMP2/9 linker (GPLGVR) - heavy chain (ADA-H2X, IgG1 Fc mutant); IGF2 B chain - linker - light chain (ADA-L1); also called anti-TNFα shielded antibody with IGF2-based masking domain; EAC186/EAC187
B2: TAVO190191 (antibody, human IgG1, kappa)
heavy: B1 heavy with G27P, P28L, L29G, G30L, V31A, R32G
light: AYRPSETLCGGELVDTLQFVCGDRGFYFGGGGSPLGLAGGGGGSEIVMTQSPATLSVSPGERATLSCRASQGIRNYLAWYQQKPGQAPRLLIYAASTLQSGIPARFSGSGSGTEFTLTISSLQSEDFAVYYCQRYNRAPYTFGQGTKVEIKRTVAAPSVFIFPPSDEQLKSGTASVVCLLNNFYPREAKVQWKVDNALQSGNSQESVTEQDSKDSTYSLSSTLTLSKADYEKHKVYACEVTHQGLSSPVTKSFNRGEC
notes: Undigested; Native IGF2 A and B chains, MMP2/9 substrate PLGLAG; also called anti-TNFα shielded antibody with IGF2-based masking domain; EAC190/EAC191
B3: TAVO188189 (antibody, human IgG1, kappa)
heavy: B1 heavy with G27P, P28L, L29G, G30L, V31A
light: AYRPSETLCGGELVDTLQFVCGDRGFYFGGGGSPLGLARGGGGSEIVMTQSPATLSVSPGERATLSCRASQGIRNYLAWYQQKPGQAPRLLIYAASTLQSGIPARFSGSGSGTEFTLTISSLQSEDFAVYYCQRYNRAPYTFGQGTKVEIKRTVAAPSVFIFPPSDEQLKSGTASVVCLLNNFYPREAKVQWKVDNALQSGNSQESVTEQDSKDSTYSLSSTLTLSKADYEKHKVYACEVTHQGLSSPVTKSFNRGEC
notes: Undigested; MMP2/9 substrate PLGLAR; also called anti-TNFα shielded antibody with IGF2-based masking domain; EAC188/EAC189
B4: TAVO196197 (antibody, human IgG1, kappa)
heavy: GIVEECCFRSCDLALLETYCAGGGGSRPKPVEVWRKGGGGSEVQLVESGGGLVQPGGSLRLSCAASGFDFADYAMHWVRQAPGKGLEWVSAITWNGGHTDYADSVKGRFTISRDNSKNTLYLQMNSLRAEDTAVYYCAKVSYLSTASSLDYWGQGTLVTVSSASTKGPSVFPLAPSSKSTSGGTAALGCLVKDYFPEPVTVSWNSGALTSGVHTFPAVLQSSGLYSLSSVVTVPSSSLGTQTYICNVNHKPSNTKVDKKVEPKSCDKTHTCPPCPAPPAAGPSVFLFPPKPKDTLMISRTPEVTCVVVDVSHEDPEVKFNWYVDGVEVHNAKTKPREEQYNSTYRVVSVLTVLHQDWLNGKEYKCKVSNKALPAPIEKTISKAKGQPREPQVYTLPPSRDELTKNQVSLTCLVKGFYPSDIAVEWESNGQPENNYKTTPPVLDSDGSFLLYSKLTVDKSRWQQGNVFSCSVLHEALHSHYTQKSLSLSPGK
light: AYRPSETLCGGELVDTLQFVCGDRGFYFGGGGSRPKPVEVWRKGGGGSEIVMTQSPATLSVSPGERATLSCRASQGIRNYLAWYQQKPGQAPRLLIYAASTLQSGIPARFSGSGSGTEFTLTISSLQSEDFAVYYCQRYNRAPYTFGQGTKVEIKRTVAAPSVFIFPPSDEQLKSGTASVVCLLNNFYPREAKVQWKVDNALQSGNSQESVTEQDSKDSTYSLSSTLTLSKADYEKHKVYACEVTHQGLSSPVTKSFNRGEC
notes: Undigested; also called anti-TNFα shielded antibody with IGF2-based masking domain; EAC196/EAC197
B5: TAVO192193 (antibody, human IgG1, kappa)
heavy: GIVEECCFRSCDLALLETYCAGGGGSIPVSLRSGGGGGSEVQLVESGGGLVQPGGSLRLSCAASGFDFADYAMHWVRQAPGKGLEWVSAITWNGGHTDYADSVKGRFTISRDNSKNTLYLQMNSLRAEDTAVYYCAKVSYLSTASSLDYWGQGTLVTVSSASTKGPSVFPLAPSSKSTSGGTAALGCLVKDYFPEPVTVSWNSGALTSGVHTFPAVLQSSGLYSLSSVVTVPSSSLGTQTYICNVNHKPSNTKVDKKVEPKSCDKTHTCPPCPAPPAAGPSVFLFPPKPKDTLMISRTPEVTCVVVDVSHEDPEVKFNWYVDGVEVHNAKTKPREEQYNSTYRVVSVLTVLHQDWLNGKEYKCKVSNKALPAPIEKTISKAKGQPREPQVYTLPPSRDELTKNQVSLTCLVKGFYPSDIAVEWESNGQPENNYKTTPPVLDSDGSFLLYSKLTVDKSRWQQGNVFSCSVLHEALHSHYTQKSLSLSPGK
light: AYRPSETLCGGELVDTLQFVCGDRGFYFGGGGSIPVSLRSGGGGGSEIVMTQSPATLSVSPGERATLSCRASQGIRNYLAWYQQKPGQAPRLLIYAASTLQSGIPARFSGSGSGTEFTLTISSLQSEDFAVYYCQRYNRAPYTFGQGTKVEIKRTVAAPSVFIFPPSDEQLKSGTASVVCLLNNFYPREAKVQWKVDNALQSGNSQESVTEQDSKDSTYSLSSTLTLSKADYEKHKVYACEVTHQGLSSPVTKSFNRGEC
notes: Undigested; also called anti-TNFα shielded antibody with IGF2-based masking domain; EAC192/EAC193
B6: TAVO194195 (antibody, human IgG1, kappa)
heavy: B5 heavy with I27G, V29L, S30G, L31M, R32L, G34Q
light: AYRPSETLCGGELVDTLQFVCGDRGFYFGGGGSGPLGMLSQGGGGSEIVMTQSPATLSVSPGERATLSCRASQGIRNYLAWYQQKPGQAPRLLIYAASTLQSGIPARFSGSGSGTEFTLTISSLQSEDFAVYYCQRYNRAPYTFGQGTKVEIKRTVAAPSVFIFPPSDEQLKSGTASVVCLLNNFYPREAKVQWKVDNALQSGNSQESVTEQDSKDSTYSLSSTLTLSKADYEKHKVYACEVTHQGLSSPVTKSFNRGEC
notes: also called anti-TNFα shielded antibody with IGF2-based masking domain; EAC194/EAC195
B7: TAVO167127 (antibody, human IgG1, kappa)
heavy: EVQLVESGGGLVQPGGSLRLSCAASGFDFADYAMHWVRQAPGKGLEWVSAITWNGGHTDYADSVKGRFTISRDNSKNTLYLQMNSLRAEDTAVYYCAKVSYLSTASSLDYWGQGTLVTVSSASTKGPSVFPLAPSSKSTSGGTAALGCLVKDYFPEPVTVSWNSGALTSGVHTFPAVLQSSGLYSLSSVVTVPSSSLGTQTYICNVNHKPSNTKVDKKVEPKSCDKTHTCPPCPAPPAAGPSVFLFPPKPKDTLMISRTPEVTCVVVDVSHEDPEVKFNWYVDGVEVHNAKTKPREEQYNSTYRVVSVLTVLHQDWLNGKEYKCKVSNKALPAPIEKTISKAKGQPREPQVYTLPPSRDELTKNQVSLTCLVKGFYPSDIAVEWESNGQPENNYKTTPPVLDSDGSFLLYSKLTVDKSRWQQGNVFSCSVLHEALHSHYTQKSLSLSPGK
light: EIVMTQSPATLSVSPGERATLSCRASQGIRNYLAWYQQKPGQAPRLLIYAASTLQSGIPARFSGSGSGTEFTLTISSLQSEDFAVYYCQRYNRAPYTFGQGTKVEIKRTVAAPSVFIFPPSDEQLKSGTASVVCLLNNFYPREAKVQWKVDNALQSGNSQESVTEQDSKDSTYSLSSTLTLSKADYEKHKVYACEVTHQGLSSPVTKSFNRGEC
notes: Control antibody, ADA-H2X / ADA-L1 variable domains, IgG1 Fc with E233P, L234A, L235A, F405L, M428L, N434S and G236 deleted; also called active anti-TNFα antibody without the IGF2-based masking domain; unmasked anti-TNFα antibody
B8: TAVO271272 (antibody, human IgG1, kappa)
heavy: B1 heavy with V3L, G27P, P28L, L29G, G30L, V31A, R32G
light: not shown
notes: Undigested; ADA-H2X / ADA-L1; also called anti-TNFα shielded antibody with variant IGF2-based masking domain; EAC271/EAC272
B9: TAVO271585 (antibody, human IgG1, kappa)
heavy: B1 heavy with V3L, G27P, P28L, L29G, G30L, V31A, R32G
light: AYRPSETLCGGELVDTLQFVCGDRGFAFGGGGSPLGLAGGGGGSDIVMTQSPDSLAVSLGERATINCRASQGIRNYLAWYQQKPGQAPKLLIYAASTLQSGVPDRFSGSGSGTDFTLTISSLQAEDVAVYYCQRYNRAPYTFGQGTKVEIKRTVAAPSVFIFPPSDEQLKSGTASVVCLLNNFYPREAKVQWKVDNALQSGNSQESVTEQDSKDSTYSLSSTLTLSKADYEKHKVYACEVTHQGLSSPVTKSFNRGEC
notes: Variant IGF2 mask; ADA-H2X / ADA-L2; also called EAC271/EAC585
B10: TAVO190197 (antibody, human IgG1, kappa)
heavy: B1 heavy with G27P, P28L, L29G, G30L, V31A, R32G
light: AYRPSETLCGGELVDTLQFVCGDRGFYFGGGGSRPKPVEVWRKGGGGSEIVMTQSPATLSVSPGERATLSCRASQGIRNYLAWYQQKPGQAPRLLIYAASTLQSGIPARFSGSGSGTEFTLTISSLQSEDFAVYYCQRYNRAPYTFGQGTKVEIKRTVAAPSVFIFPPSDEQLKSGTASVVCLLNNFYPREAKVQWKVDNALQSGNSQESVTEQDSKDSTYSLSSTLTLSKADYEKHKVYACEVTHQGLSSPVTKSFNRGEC
notes: Undigested; also called anti-TNFα shielded antibody with two different types of protease-cleavable linkers; undigested TAVO190197
B11: TAVO579585 (antibody, human IgG1, kappa)
heavy: GILEECCFRSCDLALLETYCAGGGGSPLGLAGGGGGSEVQLVESGGVVVQPGGSLRLSCAASGFDFADYAMHWVRQAPGKGLEWVSAITWNGGHTDYADSVKGRFTISRDNSKNSLYLQMNSLRTEDTALYYCAKVSYLSTASSLDYWGQGTLVTVSSASTKGPSVFPLAPSSKSTSGGTAALGCLVKDYFPEPVTVSWNSGALTSGVHTFPAVLQSSGLYSLSSVVTVPSSSLGTQTYICNVNHKPSNTKVDKKVEPKSCDKTHTCPPCPAPPAAGPSVFLFPPKPKDTLMISRTPEVTCVVVDVSHEDPEVKFNWYVDGVEVHNAKTKPREEQYNSTYRVVSVLTVLHQDWLNGKEYKCKVSNKALPAPIEKTISKAKGQPREPQVYTLPPSRDELTKNQVSLTCLVKGFYPSDIAVEWESNGQPENNYKTTPPVLDSDGSFLLYSKLTVDKSRWQQGNVFSCSVLHEALHSHYTQKSLSLSPGK
light: B9 light
notes: Variant IGF2 mask; ADA-H1X / ADA-L2; also called EAC579/EAC585
B12: TAVO578272 (antibody, human IgG1, kappa)
heavy: B11 heavy with D65T, A67D, G92S, T95I
light: not shown
notes: Variant IGF2 mask; ADA-H1 / ADA-L1; also called EAC578/EAC272
B13: TAVO580585 (antibody, human IgG1, kappa)
heavy: B11 heavy with V47G, V48L, D65T, A67D, G92S, T95I, S115T, T125A, L130V
light: B9 light
notes: Variant IGF2 mask; ADA-H2 / ADA-L2; also called EAC580/EAC585
B14: TAVO579272 (antibody, human IgG1, kappa)
heavy: B11 heavy
light: not shown
notes: Variant IGF2 mask; ADA-H1X / ADA-L1; also called EAC579/EAC272
B15: TAVO584272 (antibody, human IgG1, kappa)
heavy: B11 heavy with E38Q, V47G, S115T, T125A, L130V
light: not shown
notes: Variant IGF2 mask; ADA-H4X / ADA-L1; also called EAC584/EAC272
B16: TAVO584585 (antibody, human IgG1, kappa)
heavy: B11 heavy with E38Q, V47G, S115T, T125A, L130V
light: B9 light
notes: Variant IGF2 mask; ADA-H4X / ADA-L2; also called EAC584/EAC585
B17: TAVO580272 (antibody, human IgG1, kappa)
heavy: B11 heavy with V47G, V48L, D65T, A67D, G92S, T95I, S115T, T125A, L130V
light: not shown
notes: Variant IGF2 mask; ADA-H2 / ADA-L1; also called EAC580/EAC272
B18: TAVO578585 (antibody, human IgG1, kappa)
heavy: B11 heavy with D65T, A67D, G92S, T95I
light: B9 light
notes: Variant IGF2 mask; ADA-H1 / ADA-L2; also called EAC578/EAC585
B19: TAVO190197 after digestion by both MMP2 and MMP3 (antibody)
heavy: B7 heavy
light: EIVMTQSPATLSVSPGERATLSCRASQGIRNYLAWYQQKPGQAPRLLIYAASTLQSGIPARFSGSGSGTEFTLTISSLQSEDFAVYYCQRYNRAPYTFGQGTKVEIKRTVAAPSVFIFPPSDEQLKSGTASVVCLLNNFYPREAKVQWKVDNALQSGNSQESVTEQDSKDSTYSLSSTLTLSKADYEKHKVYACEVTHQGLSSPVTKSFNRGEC
notes: Both chains cut; not shown: remnant of the MMP2-cleavable linker left after cleavage; remnant of the MMP3-cleavable linker left after cleavage

Each binder was assayed against T1, recombinant human TNFα (human, UniProt P01375 77-233) (assay: ELISA, recombinant human TNFα coated at 1 µg/mL, HRP anti-human secondary).
T1 construct: Bought protein
T1 sequence (P01375 77-233 limits assumed): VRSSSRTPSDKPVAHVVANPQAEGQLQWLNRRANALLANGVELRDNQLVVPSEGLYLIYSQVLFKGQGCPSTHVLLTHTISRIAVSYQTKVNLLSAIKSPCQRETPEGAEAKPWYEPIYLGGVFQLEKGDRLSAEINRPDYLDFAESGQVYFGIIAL
Description: In this assay, 1 μg/mL recombinant human TNFα (R&D systems) was coated on an ELISA plate. Increasing concentrations of anti-TNFα shielded antibodies were applied on the plate and their binding to the recombinant human TNFα was detected by HRP-conjugated anti-human secondary antibody.
B1 was tested, and the “fold lower binding affinity than TAVO167127” value was at least 5 fold. For B2, the “fold lower binding affinity than TAVO167127” value was at least 5 fold. B3 was tested, and the “fold lower binding affinity than TAVO167127” value was at least 5 fold. With B4 the “fold lower binding affinity than TAVO167127” value was at least 5 fold. B5 was tested, and the “fold lower binding affinity than TAVO167127” value was at least 5 fold. In the case of B6, the “fold lower binding affinity than TAVO167127” value is reported as at least 5 fold. B7: binds.

The binders below were run against T1, recombinant human TNFα (assay: cell-based or functional assay).
With B1 the “HEK-Blue TNFα reporter assay: potency in blocking TNFα functional activity, fold lower than TAVO167127” value was about 50 fold. B2 was tested, and the “HEK-Blue TNFα reporter assay: potency in blocking TNFα functional activity, fold lower than TAVO167127” value was about 50 fold. With B3 the “HEK-Blue TNFα reporter assay: potency in blocking TNFα functional activity, fold lower than TAVO167127” value was about 50 fold. For B4, the “HEK-Blue TNFα reporter assay: potency in blocking TNFα functional activity, fold lower than TAVO167127” value was about 50 fold. With B5 the “HEK-Blue TNFα reporter assay: potency in blocking TNFα functional activity, fold lower than TAVO167127” value was about 50 fold. In the case of B6, the “HEK-Blue TNFα reporter assay: potency in blocking TNFα functional activity, fold lower than TAVO167127” value is reported as about 50 fold.

These binders were tested against T1, recombinant human TNFα (assay: ELISA on human TNFα).
For B8, the “fold more reduced binding affinity than TAVO190191” value was 8 fold. B9: binds. B10: binds. B11: binds. B12: binds. B13: binds. B14: binds. B15: binds. B16: binds. B17: binds. B18: binds. B19: binds.
